Test results taken from US20210380703A1 (RIGEL PHARMACEUTICALS, published 2021).

Columns and labels:
human ACVR2A = human ACVR2A (human, UniProt P27037 20-135, limits assumed); experiment: ELISA
Method in brief: (§1)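 Monoclonal antibodies were first applied to human or mouse ACVR2A, alongside biotinylated goat anti-human kappa light chain (positive control) and human Fc (negative control); binding was then determined by ELISA.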

mouse ACVR2A = mouse ACVR2A (mouse, UniProt P27038 20-135, limits assumed); experiment: ELISA
Chain of mouse ACVR2A (P27038 20-135 limits assumed): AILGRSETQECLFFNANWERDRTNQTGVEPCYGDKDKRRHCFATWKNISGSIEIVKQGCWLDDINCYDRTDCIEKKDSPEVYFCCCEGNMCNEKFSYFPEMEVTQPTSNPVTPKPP
Method in brief: as §1

[1] = molecular target: T1, biotinylated goat anti-human kappa light chain; experiment: ELISA; positive control
T1 construct: Positive control of the ELISA
Method in brief: as §1
Note: test concentration or dose not given here.

Chain of human ACVR2A (P27037 20-135 limits assumed): as the sequence (P27038 20-135 limits assumed) above, with R20K, I73V counted along it

Row | Binder | optical density (human ACVR2A) [OD] | optical density (mouse ACVR2A) [OD] | optical density [1] [OD]
1 | 366_A09 (antibody, V domains shown, VH/VL only) VH: EVQLLESGGGLVQPGGSLRLSCAASGFTFSDYGMHWVRQAPGKGLEWVASINYNSGYTSYADSVKGRFTISRDNSKNTLYLQMNSLRAEDTAVYYCARSATWHDTHLDYWGQGTLVTVSS VL: DIQMTQSPSSLSASVGDRVTITCRASQSILTYLNWYQQKPGKAPKLLIYAATSRHSGVPSRFSGSGSGTDFTLTISSLQPEDFATYYCQQSYETPLTFGGGTKVEIK | 1.79 | 1.93 | 3.28
2 | 366_C02 (antibody, V domains shown, VH/VL only) VH: EVQLLESGGGLVQPGGSLRLSCAASGFTFSDYSMNWVRQAPGKGLEWVANINYNGGYTGYADSVKGRFTISRDNSKNTLYLQMNSLRAEDTAVYYCARSATWHDTHLDYWGQGTLVTVSS VL: DIQMTQSPSSLSASVGDRVTITCRASQSIVSYLNWYQQKPGKAPKLLIYAATSRASGVPSRFSGSGSGTDFTLTISSLQPEDFATYYCQQSYDNPLTFGGGTKVEIK | 3.03 | 3.04 | 3.43
3 | 367_E02 (antibody, V domains shown, VH/VL only) VH: EVQLLESGGGLVQPGGSLRLSCAASGFTFDSYSMNWVRQAPGKGLEWVAGINYNGGYTGYADSVKGRFTISRDNSKNTLYLQMNSLRAEDTAVYYCARSATWHDTHLDYWGQGTLVTVSS VL: not shown | 1.87 | 2.03 | 3.44
4 | 367_F02 (antibody, V domains shown, VH/VL only) VH: EVQLLESGGGLVQPGGSLRLSCAASGFTFDSYSMNWVRQAPGKGLEWVANINYNGGYTSYADSVKGRFTISRDNSKNTLYLQMNSLRAEDTAVYYCARSATWHDTHLDYWGQGTLVTVSS VL: DIQMTQSPSSLSASVGDRVTITCRASQSIISYVNWYQQKPGKAPKLLIYAATSRHSGVPSRFSGSGSGTDFTLTISSLQPEDFATYYCQQSYESPLTFGGGTKVEIK | 2.38 | 2.27 | 3.52
5 | 366_C01 (antibody, V domains shown, VH/VL only) VH: not shown VL: DIQMTQSPSSLSASVGDRVTITCRASQSIVTYLNWYQQKPGKAPKLLIYAATSPASGVPSRFSGSGSGTDFTLTISSLQPEDFATYYCQQSYELPLTFGGGTKVEIK | 2.31 | 2.41 | 3.6
6 | 366_A03 (antibody, V domains shown, VH/VL only) VH: EVQLLESGGGLVQPGGSLRLSCAASGFTFDSYSMNWVRQAPGKGLEWVAGINYNSGYKGYADSVKGRFTISRDNSKNTLYLQMNSLRAEDTAVYYCARSATWHDTHLDYWGQGTLVTVSS VL: DIQMTQSPSSLSASVGDRVTITCRASQSISSYLNWYQQKPGKAPKLLIYAATSLASGVPSRFSGSGSGTDFTLTISSLQPEDFATYYCQQSYSNPLTFGGGTKVEIK | 1.15 | 1.12 | 3.31
7 | 367_A09 (antibody, V domains shown, VH/VL only) VH: EVQLLESGGGLVQPGGSLRLSCAASGFTFDSYGMNWVRQAPGKGLEWVAGINYNGGYTSYADSVKGRFTISRDNSKNTLYLQMNSLRAEDTAVYYCARSATWHDTHLDYWGQGTLVTVSS VL: DIQMTQSPSSLSASVGDRVTITCRASQSILSYVNWYQQKPGKAPKLVIYAATSRHSGVPSRFSGSGSGTDFTLTISSLQPEDFATYYCQQSYDTPLTFGGGTKVEIK | 2.18 | 2.41 | 3.45
8 | 366_A05 (antibody, V domains shown, VH/VL only) VH: EVQLLESGGGLVQPGGSLRLSCAASGFTFSSYSMNWVRQAPGKGLEWVAGINYNSGYTGYADSVKGRFTISRDNSKNTLYLQMNSLRAEDTAVYYCARSATWHDTHLDYWGQGTLVTVSS VL: DIQMTQSPSSLSASVGDRVTITCRASQSILTYVNWYQQKPGKAPKLVIYAATSLASGVPSRFSGSGSGTDFTLTISSLQPEDFATYYCQQSYNTPLTFGGGTKVEIK | 2.62 | 2.6 | 3.48
9 | 366_D07 (antibody, V domains shown, VH/VL only) VH: not shown VL: DIQMTQSPSSLSASVGDRVTITCRASQSILTYLNWYQQKPGKAPKLLIYAATSLASGVPSRFSGSGSGTDFTLTISSLQPEDFATYYCQQSYSSPLTFGGGTKVEIK | 2.41 | 2.62 | 3.38
10 | 366_D02 (antibody, V domains shown, VH/VL only) VH: EVQLLESGGGLVQPGGSLRLSCAASGFTFSSYSMNWVRQAPGKGLEWVASINYNGGYTSYADSVKGRFTISRDNSKNTLYLQMNSLRAEDTAVYYCARSATWHDTHLDYWGQGTLVTVSS VL: DIQMTQSPSSLSASVGDRVTITCRASQSILSYVNWYQQKPGKAPKLLIYATTSLASGVPSRFSGSGSGTDFTLTISSLQPEDFATYYCQQSYDLPLTFGGGTKVEIK | 2.27 | 2.55 | 3.57

Next, values leading:

Row | optical density (human ACVR2A) [OD] | optical density (mouse ACVR2A) [OD] | optical density [1] [OD] | Binder
11 | 2.74 | 2.75 | 3.55 | 365_G12 (antibody, V domains shown, VH/VL only) VH: EVQLLESGGGLVQPGGSLRLSCAASGFTFSSYGMNWVRQAPGKGLEWVAGINYNSGYTSYADSVKGRFTISRDNSKNTLYLQMNSLRAEDTAVYYCARSATWHDTALDYWGQGTLVTVSS VL: DIQMTQSPSSLSASVGDRVTITCRASQSILSYVNWYQQKPGKAPKLVIYAATSRASGVPSRFSGSGSGTDFTLTISSLQPEDFATYYCQQSYSNPLTFGGGTKVEIK
12 | 2.81 | 3.05 | 3.4 | 366_B04 (antibody, V domains shown, VH/VL only) VH: EVQLLESGGGLVQPGGSLRLSCAASGFTFDSYSMNWVRQAPGKGLEWVAGINYNGGYKGYADSVKGRFTISRDNSKNTLYLQMNSLRAEDTAVYYCARSATWHDTHLDYWGQGTLVTVSS VL: DIQMTQSPSSLSASVGDRVTITCRASQSILTYVNWYQQKPGKAPKLVIYAATSRHSGVPSRFSGSGSGTDFTLTISSLQPEDFATYYCQQSYDTPLTFGGGTKVEIK
13 | 2.44 | 2.74 | 3.47 | 366_H05 (antibody, V domains shown, VH/VL only) VH: EVQLLESGGGLVQPGGSLRLSCAASGFTFDSYGMHWVRQAPGKGLEWVASINYNGGYTSYADSVKGRFTISRDNSKNTLYLQMNSLRAEDTAVYYCARSATWHDTHLDYWGQGTLVTVSS VL: DIQMTQSPSSLSASVGDRVTITCRASQSILSYVNWYQQKPGKAPKLLIYAATSLASGVPSRFSGSGSGTDFTLTISSLQPEDFATYYCQQSYDLPLTFGGGTKVEIK
14 | 3.18 | 3.28 | 3.51 | 367_A01 (antibody, V domains shown, VH/VL only) VH: EVQLLESGGGLVQPGGSLRLSCAASGFTFSSYSMNWVRQAPGKGLEWVASINYNGGYTGYADSVKGRFTISRDNSKNTLYLQMNSLRAEDTAVYYCARSATWHDTHLDYWGQGTLVTVSS VL: DIQMTQSPSSLSASVGDRVTITCRASQSILTYLNWYQQKPGKAPKLLIYAATSRASGVPSRFSGSGSGTDFTLTISSLQPEDFATYYCQQSYDLPLTFGGGTKVEIK
15 | 2.3 | 2.81 | 3.51 | 367_C03 (antibody, V domains shown, VH/VL only) VH: EVQLLESGGGLVQPGGSLRLSCAASGFTFSSYSMNWVRQAPGKGLEWVANINYNGGYTGYADSVKGRFTISRDNSKNTLYLQMNSLRAEDTAVYYCARSATWHDTALDYWGQGTLVTVSS VL: DIQMTQSPSSLSASVGDRVTITCRASQSILSYVNWYQQKPGKAPKLVIYATTSRASGVPSRFSGSGSGTDFTLTISSLQPEDFATYYCQQSYENPLTFGGGTKVEIK
